# Laboratory results published in article PMC7954794 (2021).
# B1: S. cerevisiae Abp1 (full length; SH3 domain 535-592 mutated) / Hua2 (parent complex)
# chain 1: MALEPIDYTTHSREIDAEYLKIVRGSDPDTTWLIISPNAKKEYEPESTGSSFHDFLQLFDETKVQYGLARVSPPGSDVEKIIIIGWCPDSAPLKTRASFAANFAAVANNLFKGYHVQVTARDEDDLDENELLMKISNAAGARYSIQTSSKQQGKASTPPVKKSFTPSKSPAPVSKKEPVKTPSPAPAAKISSRVNDNNDDDDWNEPELKERDFDQAPLKPNQSSYKPIGKIDLQKVIAEEKAKEDPRLVQKPTAAGSKIDPSSDIANLKNESKLKRDSEFNSFLGTTKPPSMTESSLKNDDDKVIKGFRNEKSPAQLWAERKAKQNSGNAETKAEAPKPEVPEDEPEGEPDVKDLKSKFEGLAASEKEEEEMENKFAPPPKKSEPTIISPKPFSKPQEPVKAEEAEQPKTDYKKIGNPLPGMHIEADNEEEPEENDDDWDDDEDEAAQPPLPSRNVASGAPVQKEEPEQEEIAPSLPSRNSIPAPKQEEAPEQAPEEEIEEEAEEAAPQLPSRSSAAPPPPPRRATPEKKPKENPWATAEYDYDAAEDNELTFVENDKIINIEFVDDDWWLGELEKDGSKGLFPSNYVSLGN
# chain 2: MQQTKFGKMYLDHDSVVEYSEDEIVEADRITLGYKKRLSMIENQMRHLLEDFSLDVQQIEPILADLQKYYDAFLQLLQKRNKSLQCKRSTHQPVPSPMNSQTSTNAKVNLSGKLMKFQLNSVQKFDEENILRILQNKIEFEHYFQIDKGKKQKVLLLAVYQCLNGPTRLHKVLNIEGIIHNNSIRTILGKQVSSSKWTVFLYDVKLVLLAHRQDVPNLETSKMIVRYGDLFPCALYFKDHTAY
# Variants of: B1
# Test: DHFR protein-fragment complementation in yeast (Abp1-DHFR F[1,2] x partner-DHFR F[3]), deep mutational scanning, second methotrexate selection vs reference; S. cerevisiae, DHFR-PCA selection in liquid with methotrexate at 30 C, two 72 h selections (the score uses the second); reference = the pre-selection culture
row,screen value,Variant
1,"0.298 DMS score: mean over two replicates of log2(f_test/f_ref + 0.5)/ln 2, minus the synonymous-codon median (not a log2 …",chain 1 MALEPIDYTTHSREIDAEYLKIVRGSDPDTTWLIISPNAKKEYEPESTGSSFHDFLQLFDETKVQYGLARVSPPGSDVEKIIIIGWCPDSAPLKTRASFAANFAAVANNLFKGYHVQVTARDEDDLDENELLMKISNAAGARYSIQTSSKQQGKASTPPVKKSFTPSKSPAPVSKKEPVKTPSPAPAAKISSRVNDNNDDDDWNEPELKERDFDQAPLKPNQSSYKPIGKIDLQKVIAEEKAKEDPRLVQKPTAAGSKIDPSSDIANLKNESKLKRDSEFNSFLGTTKPPSMTESSLKNDDDKVIKGFRNEKSPAQLWAERKAKQNSGNAETKAEAPKPEVPEDEPEGEPDVKDLKSKFEGLAASEKEEEEMENKFAPPPKKSEPTIISPKPFSKPQEPVKAEEAEQPKTDYKKIGNPLPGMHIEADNEEEPEENDDDWDDDEDEAAQPPLPSRNVASGAPVQKEEPEQEEIAPSLPSRNSIPAPKQEEAPEQAPEEEIEEEAEEAAPQLPSRSSAAPPPPPRRATPEKKPKENPWARAEYDYDAAEDNELTFVENDKIINIEFVDDDWWLGELEKDGSKGLFPSNYVSLGN [chain 1 T538R]
2,"-2.49 DMS score: mean over two replicates of log2(f_test/f_ref + 0.5)/ln 2, minus the synonymous-codon median (not a log2 …",chain 1 MALEPIDYTTHSREIDAEYLKIVRGSDPDTTWLIISPNAKKEYEPESTGSSFHDFLQLFDETKVQYGLARVSPPGSDVEKIIIIGWCPDSAPLKTRASFAANFAAVANNLFKGYHVQVTARDEDDLDENELLMKISNAAGARYSIQTSSKQQGKASTPPVKKSFTPSKSPAPVSKKEPVKTPSPAPAAKISSRVNDNNDDDDWNEPELKERDFDQAPLKPNQSSYKPIGKIDLQKVIAEEKAKEDPRLVQKPTAAGSKIDPSSDIANLKNESKLKRDSEFNSFLGTTKPPSMTESSLKNDDDKVIKGFRNEKSPAQLWAERKAKQNSGNAETKAEAPKPEVPEDEPEGEPDVKDLKSKFEGLAASEKEEEEMENKFAPPPKKSEPTIISPKPFSKPQEPVKAEEAEQPKTDYKKIGNPLPGMHIEADNEEEPEENDDDWDDDEDEAAQPPLPSRNVASGAPVQKEEPEQEEIAPSLPSRNSIPAPKQEEAPEQAPEEEIEEEAEEAAPQLPSRSSAAPPPPPRRATPEKKPKENPWATAEYDYDAAEDWELTFVENDKIINIEFVDDDWWLGELEKDGSKGLFPSNYVSLGN [chain 1 N549W]
3,"-2.24 DMS score: mean over two replicates of log2(f_test/f_ref + 0.5)/ln 2, minus the synonymous-codon median (not a log2 …",chain 1 MALEPIDYTTHSREIDAEYLKIVRGSDPDTTWLIISPNAKKEYEPESTGSSFHDFLQLFDETKVQYGLARVSPPGSDVEKIIIIGWCPDSAPLKTRASFAANFAAVANNLFKGYHVQVTARDEDDLDENELLMKISNAAGARYSIQTSSKQQGKASTPPVKKSFTPSKSPAPVSKKEPVKTPSPAPAAKISSRVNDNNDDDDWNEPELKERDFDQAPLKPNQSSYKPIGKIDLQKVIAEEKAKEDPRLVQKPTAAGSKIDPSSDIANLKNESKLKRDSEFNSFLGTTKPPSMTESSLKNDDDKVIKGFRNEKSPAQLWAERKAKQNSGNAETKAEAPKPEVPEDEPEGEPDVKDLKSKFEGLAASEKEEEEMENKFAPPPKKSEPTIISPKPFSKPQEPVKAEEAEQPKTDYKKIGNPLPGMHIEADNEEEPEENDDDWDDDEDEAAQPPLPSRNVASGAPVQKEEPEQEEIAPSLPSRNSIPAPKQEEAPEQAPEEEIEEEAEEAAPQLPSRSSAAPPPPPRRATPEKKPKENPWATAEYDYDAAEDNELTFVENDKIINIEFVDDDWWLGELEKDGSKGLFPSNSVSLGN [chain 1 Y587S]
4,"-0.255 DMS score: mean over two replicates of log2(f_test/f_ref + 0.5)/ln 2, minus the synonymous-codon median (not a log2 …",chain 1 MALEPIDYTTHSREIDAEYLKIVRGSDPDTTWLIISPNAKKEYEPESTGSSFHDFLQLFDETKVQYGLARVSPPGSDVEKIIIIGWCPDSAPLKTRASFAANFAAVANNLFKGYHVQVTARDEDDLDENELLMKISNAAGARYSIQTSSKQQGKASTPPVKKSFTPSKSPAPVSKKEPVKTPSPAPAAKISSRVNDNNDDDDWNEPELKERDFDQAPLKPNQSSYKPIGKIDLQKVIAEEKAKEDPRLVQKPTAAGSKIDPSSDIANLKNESKLKRDSEFNSFLGTTKPPSMTESSLKNDDDKVIKGFRNEKSPAQLWAERKAKQNSGNAETKAEAPKPEVPEDEPEGEPDVKDLKSKFEGLAASEKEEEEMENKFAPPPKKSEPTIISPKPFSKPQEPVKAEEAEQPKTDYKKIGNPLPGMHIEADNEEEPEENDDDWDDDEDEAAQPPLPSRNVASGAPVQKEEPEQEEIAPSLPSRNSIPAPKQEEAPEQAPEEEIEEEAEEAAPQLPSRSSAAPPPPPRRATPEKKPKENPWATAEYDYDAAEDNELGFVENDKIINIEFVDDDWWLGELEKDGSKGLFPSNYVSLGN [chain 1 T552G]
5,"-2.88 DMS score: mean over two replicates of log2(f_test/f_ref + 0.5)/ln 2, minus the synonymous-codon median (not a log2 …",chain 1 MALEPIDYTTHSREIDAEYLKIVRGSDPDTTWLIISPNAKKEYEPESTGSSFHDFLQLFDETKVQYGLARVSPPGSDVEKIIIIGWCPDSAPLKTRASFAANFAAVANNLFKGYHVQVTARDEDDLDENELLMKISNAAGARYSIQTSSKQQGKASTPPVKKSFTPSKSPAPVSKKEPVKTPSPAPAAKISSRVNDNNDDDDWNEPELKERDFDQAPLKPNQSSYKPIGKIDLQKVIAEEKAKEDPRLVQKPTAAGSKIDPSSDIANLKNESKLKRDSEFNSFLGTTKPPSMTESSLKNDDDKVIKGFRNEKSPAQLWAERKAKQNSGNAETKAEAPKPEVPEDEPEGEPDVKDLKSKFEGLAASEKEEEEMENKFAPPPKKSEPTIISPKPFSKPQEPVKAEEAEQPKTDYKKIGNPLPGMHIEADNEEEPEENDDDWDDDEDEAAQPPLPSRNVASGAPVQKEEPEQEEIAPSLPSRNSIPAPKQEEAPEQAPEEEIEEEAEEAAPQLPSRSSAAPPPPPRRATPEKKPKENPWATARYDYDAAEDNELTFVENDKIINIEFVDDDWWLGELEKDGSKGLFPSNYVSLGN [chain 1 E540R]
